Laboratory results reported in patent publication US20040157227A1, “Reproductive cancer diagnosis and therapy” (priority 2001, published 2004).

Columns and labels:
[1] = target: growth hormone secretagogue receptor type 1a (human) (UniProt Q92847); assay: cell-based or functional assay
[2] = tested on: PC3 cells; assay: Cell proliferation assay (MTT dye method), PC3 cells; type: cell-based, human; details: 5 nM ghrelin, 3 days, 10% FCS
Description: FIG. 13: The effect of ghrelin on PC3 cells. Cell proliferation was determined using the MTT dye method. Absorbance readings for each were converted to percentage above control±SEM, indicated by error bars. * denotes P values <0.01, ** P<0.001 (one-way ANOVA with Tukey's post hoc comparisons). Data represents one of 3 identical experiments, each n=16.
(§1) PC3, MDAMB231 and Ishikawa cells were cultured in 96 well plates for 3 days at 37° C. in the presence of ghrelin (0-20 nM), in 10% FCS. Negative controls received no treatment. After aspiration of medium, cells were incubated in MTT (Sigma) solution (0.5 mg/ml) for 2h. MTT solution was aspirated and formazan salts solubilised in dimethyl sulfoxide (ICN, Costa Mesa, Calif.). A Biomeck Plate reader (Beckman, QLD, Australia) was used to measure absorbances (550/650nm).

[3] = tested on: MDA-MB 231 cells; assay: Cell proliferation assay (MTT dye method), MDA-MB 231 cells; type: cell-based, human; details: ghrelin 0-20 nM, 3 days, 10% FCS
Description: (§2) FIG. 14: The effect of ghrelin on MDA-MB231 and Ishikawa cells. Cell proliferation was determined using the MTT dye method. Absorbance readings for each were converted to percentages above control±SEM, indicated by error bars. * denotes P values <0.01, ** P<0.001 (one-way ANOVA with Tukey's post hoc comparisons).
as §1

[4] = tested on: Ishikawa cells; assay: Cell proliferation assay (MTT dye method), Ishikawa cells; type: cell-based, human; details: ghrelin 0-20 nM, 3 days, 10% FCS
Description: as §2, §1

Sequence of UniProt Q92847 (Q92847 whole entry): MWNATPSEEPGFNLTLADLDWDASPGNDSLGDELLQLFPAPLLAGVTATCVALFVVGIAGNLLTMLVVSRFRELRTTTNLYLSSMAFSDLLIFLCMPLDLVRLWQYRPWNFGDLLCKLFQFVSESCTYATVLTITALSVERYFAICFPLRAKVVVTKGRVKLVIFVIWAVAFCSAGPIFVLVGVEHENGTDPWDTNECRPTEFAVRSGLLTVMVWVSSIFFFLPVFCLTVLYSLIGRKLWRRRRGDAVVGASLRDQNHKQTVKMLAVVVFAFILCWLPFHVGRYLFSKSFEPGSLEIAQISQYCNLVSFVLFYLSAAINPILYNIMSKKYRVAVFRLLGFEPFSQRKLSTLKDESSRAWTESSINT

Cell proliferation of PC3 cells (MTT dye method) (% above controls) [1]	Molecule	viable cell numbers increased above controls (peak of dose-related increase) [2]	dose related increase in cell proliferation above untreated controls (peak) [3]	dose related increase in cell proliferation above untreated controls (peak) [4]
33	human ghrelin (from UniProt Q9UBU3 24-117) (peptide)			
	ghrelin (endogenous ligand for the GHS-R, a 28 amino acid peptide) peptide: GSSFLSPEHQRVQQRKESKKPPAKLQPRALAGWLRPEDGGQAEGAEDELEVRFNAPFDVGIKLSGVQYQQHSQALGKFLQDILWEEAKEAPADK	33%	25%	19%
